Measurements taken from paper PMC5563082.

How the values were obtained:
[1] = target: human NL1 cholinesterase domain lacking splice inserts (hNL1(–A–B)_(ECTO); Gln46-Asp635), crystallisation sample (human); assay: crystal structure; Endo F1-treated hNL1(–A–B)_(ECTO)–cMDGA1_(ECTO) complex, mixed 1:1.25, 0.1M Na.HEPES pH 7.0, 7.5% PEG8000; 3.30 Å
[2] = target: human NL1(–A–B)_(ECTO) (Gln46-Asp635), soluble protein for ITC and as SPR analyte (human); assay: ITC; β-NRX1_(LNS6)(–4) in the syringe titrated into NL1_(ECTO) alone in the cell; HBS-C (10 mM HEPES pH 7.50, 150 mM NaCl, 3 mM CaCl2), 295 K; one binding site model
[3] = target: human NL1(–A–B)_(ECTO) (Gln46-Asp635), soluble protein for ITC and as SPR analyte (human); assay: ITC; competition: β-NRX1_(LNS6)(–4) titrated into NL1_(ECTO) with an equimolar amount of MDGA1_(ECTO) in the cell; HBS-C, 295 K; apparent KD
[4] = target: human NL1(–A–B)_(ECTO), biotinylated and immobilised for SPR (human); assay: SPR; biotinylated NL_(ECTO)-Avitag variants captured from dialysed conditioned medium on streptavidin CM5 chip (500 RU; 550 RU for the ΔSite series; 1000 RU for NL3 and NL3 Arg451Cys in the R451C series); β-NRX1_(LNS6)(±4), MDGA1_(ECTO), MDGA2_(ECTO) injected, 15 concentrations, two-fold series from 50 μM; TBS-CTB (10 mM Tris pH 7.4, 150 mM NaCl, 3 mM CaCl2, 0.005% Tween-20, 1.0 g/L BSA); equilibrium analysis, 1:1 Langmuir model
[5] = target: human NL3(–A)_(ECTO) (Gln38-Asp636), immobilised for SPR (human) (UniProt Q9NZ94); assay: as above
[6] = target: human NL1(–A+B)_(ECTO), immobilised for SPR (human); assay: as above

Chain of human NL3(–A)_(ECTO) (Gln38-Asp636), immobilised for SPR (human) (Q9NZ94 other isoform, or with tags, fused parts or gaps): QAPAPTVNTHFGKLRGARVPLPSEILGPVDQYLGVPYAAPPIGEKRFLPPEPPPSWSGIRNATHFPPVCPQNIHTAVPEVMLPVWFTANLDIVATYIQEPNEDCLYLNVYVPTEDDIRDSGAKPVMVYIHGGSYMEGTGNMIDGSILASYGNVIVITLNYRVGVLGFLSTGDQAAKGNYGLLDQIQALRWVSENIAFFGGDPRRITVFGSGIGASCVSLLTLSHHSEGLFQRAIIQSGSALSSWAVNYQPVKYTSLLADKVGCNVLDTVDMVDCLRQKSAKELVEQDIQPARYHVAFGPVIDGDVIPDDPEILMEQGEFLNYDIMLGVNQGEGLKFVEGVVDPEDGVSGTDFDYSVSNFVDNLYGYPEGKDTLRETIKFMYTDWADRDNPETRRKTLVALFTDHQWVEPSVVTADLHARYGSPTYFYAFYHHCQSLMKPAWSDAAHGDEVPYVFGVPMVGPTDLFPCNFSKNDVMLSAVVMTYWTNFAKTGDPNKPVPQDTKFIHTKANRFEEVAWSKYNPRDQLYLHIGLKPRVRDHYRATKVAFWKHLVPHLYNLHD

Substance	stoichiometry N [1]	Kd [2] [nM]	K (D,app) with an equimolar amount of MDGA1 (ECTO) [3] [µM]	Kd [4] [nM]	Kd [5] [nM]	fold weaker than with NL1(–A–B) (ECTO) [6] [fold]
human NL1 cholinesterase domain lacking splice inserts (hNL1(–A–B)_(ECTO); Gln46-Asp635), crystallisation sample (domain or fragment)	2					
human β-neurexin-1 LNS6 domain lacking SS4 (β-NRX1_(LNS6)(–4); His85-Val265) (domain or fragment)		388	4.76	718	8500	< 2
human β-neurexin-1 LNS6 domain with SS4 (β-NRX1_(LNS6)(+4)) (domain or fragment)						< 2
